The values below come from patent publication US20140242080A1 (Hoffmann-La Roche, published 2014).

Numbering of substitutions follows the chain as printed.

For test [1], the target named is T1, cynomolgus MCSP D3 (cynomolgus, UniProt Q6UVK1 1582-2224 (human entry), limits assumed).
T1 construct: also called Cyno MCSP; cynomolgus homologue
T1 chain: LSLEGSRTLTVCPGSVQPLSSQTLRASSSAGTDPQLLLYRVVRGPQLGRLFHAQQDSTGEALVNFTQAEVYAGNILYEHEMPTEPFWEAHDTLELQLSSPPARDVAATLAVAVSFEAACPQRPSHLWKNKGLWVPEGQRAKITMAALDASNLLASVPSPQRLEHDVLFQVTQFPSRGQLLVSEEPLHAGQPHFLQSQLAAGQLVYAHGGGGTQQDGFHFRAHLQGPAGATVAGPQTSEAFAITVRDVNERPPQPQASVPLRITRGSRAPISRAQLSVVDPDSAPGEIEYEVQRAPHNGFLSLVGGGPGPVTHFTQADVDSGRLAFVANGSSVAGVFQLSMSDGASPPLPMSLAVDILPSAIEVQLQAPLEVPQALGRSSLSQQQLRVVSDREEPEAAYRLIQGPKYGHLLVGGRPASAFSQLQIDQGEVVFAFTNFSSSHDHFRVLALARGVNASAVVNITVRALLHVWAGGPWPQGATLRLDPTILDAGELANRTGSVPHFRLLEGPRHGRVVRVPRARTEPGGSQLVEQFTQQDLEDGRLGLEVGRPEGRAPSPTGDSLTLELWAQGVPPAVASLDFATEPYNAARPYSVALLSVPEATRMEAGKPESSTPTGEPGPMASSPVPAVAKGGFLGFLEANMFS
Description: SPR ProteOn XPR36, 25 C; IgG captured via anti-human F(ab')2, MCSP D3 as analyte.

Test [2] deals with T2, hu-MCSP(D3 domain)-avi-his (human, UniProt Q6UVK1 1582-2224).
T2 construct: Recombinant D3 domain with avi and his tags; also called human MCSP(D3 domain)-avi-his; Human MCSP D3
T2 sequence: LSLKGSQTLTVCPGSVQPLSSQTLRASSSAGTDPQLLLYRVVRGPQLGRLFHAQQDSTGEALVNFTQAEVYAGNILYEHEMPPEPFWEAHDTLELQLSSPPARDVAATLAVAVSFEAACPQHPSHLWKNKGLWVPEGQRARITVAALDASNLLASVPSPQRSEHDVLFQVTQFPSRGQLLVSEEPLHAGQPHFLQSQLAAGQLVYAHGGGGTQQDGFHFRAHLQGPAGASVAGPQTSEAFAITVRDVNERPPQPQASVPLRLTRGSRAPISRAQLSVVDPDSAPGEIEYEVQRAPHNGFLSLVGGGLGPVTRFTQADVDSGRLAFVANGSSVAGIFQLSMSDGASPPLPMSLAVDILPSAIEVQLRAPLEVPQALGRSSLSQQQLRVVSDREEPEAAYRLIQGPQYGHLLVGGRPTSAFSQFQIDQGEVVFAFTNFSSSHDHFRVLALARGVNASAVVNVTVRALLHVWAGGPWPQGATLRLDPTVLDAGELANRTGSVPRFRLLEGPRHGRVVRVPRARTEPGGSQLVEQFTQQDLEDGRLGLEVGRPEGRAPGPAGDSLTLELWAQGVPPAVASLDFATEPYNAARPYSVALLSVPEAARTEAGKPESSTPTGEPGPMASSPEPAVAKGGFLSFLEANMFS
The test is described as above.

In test [3] the target is T1, cynomolgus MCSP D3. In words: ratio of ProteOn IgG KD, parent M4-3/ML2 against variant.
Test [4] has as its target T2, hu-MCSP(D3 domain)-avi-his. The description is as above.
The target in test [5] is human MCSP expressed on tumor cells (Colo-38, WM266-4, A375, MV-3, HCT-116) (human, UniProt Q6UVK1 30-2322). Description: cell-based or functional assay.
human MCSP expressed on tumor cells (Colo-38, WM266-4, A375, MV-3, HCT-116), sequence (Q6UVK1 30-2322): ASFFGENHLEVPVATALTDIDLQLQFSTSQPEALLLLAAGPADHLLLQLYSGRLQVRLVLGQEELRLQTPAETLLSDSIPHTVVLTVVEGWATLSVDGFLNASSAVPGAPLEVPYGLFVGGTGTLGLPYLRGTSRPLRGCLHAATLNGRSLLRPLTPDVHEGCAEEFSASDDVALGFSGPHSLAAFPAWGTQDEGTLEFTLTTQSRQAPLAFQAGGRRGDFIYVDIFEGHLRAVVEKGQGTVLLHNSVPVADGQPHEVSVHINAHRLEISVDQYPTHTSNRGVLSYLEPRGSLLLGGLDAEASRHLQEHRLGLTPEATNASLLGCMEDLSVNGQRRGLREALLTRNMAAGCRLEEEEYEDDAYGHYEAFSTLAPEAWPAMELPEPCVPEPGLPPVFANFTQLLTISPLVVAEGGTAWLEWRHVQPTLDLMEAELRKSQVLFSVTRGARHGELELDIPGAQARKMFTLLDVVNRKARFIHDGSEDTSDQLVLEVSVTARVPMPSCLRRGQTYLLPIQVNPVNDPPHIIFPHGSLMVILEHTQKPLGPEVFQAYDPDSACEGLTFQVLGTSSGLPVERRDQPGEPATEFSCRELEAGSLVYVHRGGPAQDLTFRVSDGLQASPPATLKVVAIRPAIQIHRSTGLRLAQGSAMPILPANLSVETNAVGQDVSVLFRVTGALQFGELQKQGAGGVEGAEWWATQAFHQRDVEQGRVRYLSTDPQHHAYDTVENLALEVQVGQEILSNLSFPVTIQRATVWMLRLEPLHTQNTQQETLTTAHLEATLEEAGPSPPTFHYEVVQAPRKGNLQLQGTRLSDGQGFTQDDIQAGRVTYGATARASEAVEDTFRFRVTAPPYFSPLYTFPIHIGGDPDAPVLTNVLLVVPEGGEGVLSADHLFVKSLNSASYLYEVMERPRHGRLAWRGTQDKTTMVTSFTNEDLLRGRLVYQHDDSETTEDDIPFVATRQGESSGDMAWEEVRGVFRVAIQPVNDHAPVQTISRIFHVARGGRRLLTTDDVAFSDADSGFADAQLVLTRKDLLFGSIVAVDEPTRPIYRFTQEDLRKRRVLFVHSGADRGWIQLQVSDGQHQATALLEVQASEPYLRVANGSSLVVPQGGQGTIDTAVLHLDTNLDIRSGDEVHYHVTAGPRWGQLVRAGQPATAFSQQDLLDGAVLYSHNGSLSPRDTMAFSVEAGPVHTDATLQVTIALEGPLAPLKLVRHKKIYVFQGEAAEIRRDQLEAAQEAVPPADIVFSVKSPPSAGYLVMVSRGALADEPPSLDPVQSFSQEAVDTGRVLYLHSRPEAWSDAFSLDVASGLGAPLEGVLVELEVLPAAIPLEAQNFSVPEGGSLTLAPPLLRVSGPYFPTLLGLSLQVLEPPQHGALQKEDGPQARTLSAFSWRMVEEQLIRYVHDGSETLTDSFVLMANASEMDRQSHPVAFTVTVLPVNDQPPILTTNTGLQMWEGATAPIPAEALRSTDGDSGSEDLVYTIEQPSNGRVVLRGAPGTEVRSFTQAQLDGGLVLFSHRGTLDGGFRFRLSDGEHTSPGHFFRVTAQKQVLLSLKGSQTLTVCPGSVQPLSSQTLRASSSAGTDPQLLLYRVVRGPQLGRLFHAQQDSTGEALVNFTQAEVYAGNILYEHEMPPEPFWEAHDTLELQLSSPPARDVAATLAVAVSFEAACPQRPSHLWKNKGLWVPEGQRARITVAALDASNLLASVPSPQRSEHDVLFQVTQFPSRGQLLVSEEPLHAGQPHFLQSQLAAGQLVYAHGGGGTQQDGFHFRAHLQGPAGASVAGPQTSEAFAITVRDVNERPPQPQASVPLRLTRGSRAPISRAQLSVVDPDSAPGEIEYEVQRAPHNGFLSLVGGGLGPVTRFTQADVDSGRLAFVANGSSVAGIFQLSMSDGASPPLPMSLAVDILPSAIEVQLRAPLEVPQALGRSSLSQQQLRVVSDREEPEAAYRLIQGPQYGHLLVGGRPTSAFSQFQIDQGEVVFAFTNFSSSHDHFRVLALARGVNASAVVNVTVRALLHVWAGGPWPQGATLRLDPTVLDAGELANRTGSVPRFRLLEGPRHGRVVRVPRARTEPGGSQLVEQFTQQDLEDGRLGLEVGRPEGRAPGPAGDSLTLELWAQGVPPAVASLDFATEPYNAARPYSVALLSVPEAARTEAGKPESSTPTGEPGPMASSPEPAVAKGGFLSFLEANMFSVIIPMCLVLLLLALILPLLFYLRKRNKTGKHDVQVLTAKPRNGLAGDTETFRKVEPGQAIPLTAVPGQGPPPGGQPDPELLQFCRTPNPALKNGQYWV

B1: M4-3(A7)/ML2(E10) IgG (antibody, V domains shown)
VH: QVQLQESGPGLVKPSQTLSLTCTVSGGSITDGYYWNWIRQHPGKGLEWIGYITFDGRNNYNPSLKSRVTISRDTSKNQFSLKLSSVTAADTAVYYCADFDYWGQGTLVTVSS
VL: DIQMTQSPSSLSASVGDRVTITCRASYGIRGYLNWYQQKPGKAPKLLIYYTSSLHSGVPSRFSGSGSGTDFTLTISSLQPEDFATYHCQQYSKLPWTFGQGTKVEIK
notes: Human IgG1
With B1, the figures for the equilibrium dissociation constant (Kd) in test [1] and in test [2] were 700 pM and 300 pM, respectively. Besides, the “Fold increase over parent” value turned out to be 2.9 fold in test [3] and 6.7 fold in test [4].

B2: M4-3(C1)/ML2 IgG (antibody, V domains shown)
VH: B1 VH with D31S, R57S
VL: DIQMTQSPSSLSASVGDRVTITCRASQGIRNYLNWYQQKPGKAPKLLIYYTSSLHSGVPSRFSGSGSGTDFTLTISSLQPEDFATYYCQQYSKLPWTFGQGTKVEIKR
notes: Human IgG1; copies: 2 + 2
As to B2, the Kd came out at 800 pM in test [1] and 900 pM in test [2]. The results for the “Fold increase over parent” value in test [3] and in test [4] were 2.5 fold and 2.2 fold, respectively.

B3: M4-3/ML2(C5) IgG (antibody, V domains shown)
VH: B1 VH with D31S, F54Y, R57S
VL: B1 VL with Y27R, G31E, S52G, H87Y, K93E
notes: Human IgG1
B3: the Kd was 1000 pM in test [1] and 400 pM in test [2]. The figures for the “Fold increase over parent” value in test [3] and in test [4] were 2 fold and 5 fold, respectively.

B4: M4-3(D6)/ML2 IgG (antibody, V domains shown)
VH: B1 VH with D31S, R57K
VL: B1 VL with Y27Q, G31N, H87Y
notes: Human IgG1
As for B4, the equilibrium dissociation constant (Kd) came out at 1000 pM in test [1] and 400 pM in test [2]. Besides, the “Fold increase over parent” value in test [3] turned out to be 2 fold; in test [4], 5 fold.

B5: M4-3/ML2(E10) IgG (antibody, V domains shown)
VH: B1 VH with D31S, F54Y, R57S
VL: B1 VL
notes: Human IgG1
Take B5: the Kd was found to be 2000 pM in test [1] and 1000 pM in test [2]. The “Fold increase over parent” value in test [3] came to 1 fold; in test [4], 2 fold.

B6: M4-3/ML2(E10/G3) IgG (antibody, V domains shown)
VH: B1 VH with D31S, F54Y, R57S
VL: B1 VL with K93A
notes: Human IgG1
As to B6, the Kd came to 900 pM in test [1] and 400 pM in test [2]. The entries for the “Fold increase over parent” value in test [3] and in test [4] were 2.2 fold and 5 fold, respectively.

B7: M4-3/ML2(G3) IgG (antibody, V domains shown)
VH: B1 VH with D31S, F54Y, R57S
VL: B1 VL with Y27Q, G31N, F71Y, H87Y, K93A
notes: Human IgG1
With B7, the Kd came out at 600 pM in test [1] and 300 pM in test [2]. Besides, the entries for the “Fold increase over parent” value in test [3] and in test [4] were 3.3 fold and 6.7 fold, respectively.

B8: M4-(A7)/ML2(C5) IgG (antibody, V domains shown)
VH: B1 VH
VL: B1 VL with Y27R, G31E, S52G, H87Y, K93E
notes: Human IgG1; also called M4-3(A7)/ML2(C5)
As to B8, the Kd turned out to be 200 pM in test [1] and 700 pM in test [2]. Besides, the “Fold increase over parent” value in test [3] came out at 10 fold; in test [4], 28.6 fold.

B9: M4-3(B8)/ML2 IgG (antibody, V domains shown)
VH: B1 VH with D31S
VL: B1 VL with Y27Q, G31N, H87Y
notes: Human IgG1
Consider B9, for which the values for the equilibrium dissociation constant (Kd) in test [1] and in test [2] were 1000 pM and 900 pM, respectively. Besides, the “Fold increase over parent” value is 2 fold in test [3] and 2.2 fold in test [4].

B10: M4-3/ML2(C5/G3) IgG (antibody, V domains shown)
VH: B1 VH with D31S, F54Y, R57S
VL: B1 VL with Y27R, G31E, S52G, H87Y, K93A
notes: Human IgG1
As for B10, the values for the dissociation constant (Kd) in test [1] and in test [2] were 1000 pM and 700 pM, respectively. Further, the entries for the “Fold increase over parent” value in test [3] and in test [4] were 2 fold and 2.9 fold, respectively.

B11: M4-3(A7)/ML2(G3) IgG (antibody, V domains shown)
VH: B1 VH
VL: B1 VL with Y27Q, G31N, F71Y, H87Y, K93A
notes: Human IgG1
Turning to B11, the equilibrium dissociation constant (Kd) was found to be 200 pM in test [1] and 70 pM in test [2]. For the same molecule, the “Fold increase over parent” value worked out at 10 fold in test [3] and 28.6 fold in test [4].

B12: M4-3(A7)/ML2 IgG (antibody, V domains shown)
VH: B1 VH
VL: B1 VL with Y27Q, G31N, H87Y
notes: Human IgG1
In the case of B12, the Kd in test [1] was determined as 1000 pM; in test [2] it was 800 pM. Moreover, the entries for the “Fold increase over parent” value in test [3] and in test [4] were 2 fold and 2.5 fold, respectively.

B13: M4-3(B7)/ML2 IgG (antibody, V domains shown)
VH: B1 VH with D31S, R57I
VL: B1 VL with Y27Q, G31N, H87Y
notes: Human IgG1
For B13, the dissociation constant Kd in test [1] came to 700 pM; in test [2], 500 pM. Besides, the results for the “Fold increase over parent” value in test [3] and in test [4] were 2.9 fold and 4 fold, respectively.

B14: 1 + 1 IgG Crossfab; VL/VH exchange (LC007/V9) (anti-MCSP/anti-huCD3) (bispecific antibody)
chain 1: DIVLTQSPSSLSASLGDRVTISCSASQGIRNYLNWYQQRPDGTVKLLIYYTSSLHSGVPSRFSGSGSGTDYSLTISNLEPEDIATYYCQQYSKLPWTFGGGTKLEIKRTVAAPSVFIFPPSDEQLKSGTASVVCLLNNFYPREAKVQWKVDNALQSGNSQESVTEQDSKDSTYSLSSTLTLSKADYEKHKVYACEVTHQGLSSPVTKSFNRGEC
chain 2: DIQMTQSPSSLSASVGDRVTITCRASQDIRNYLNWYQQKPGKAPKLLIYYTSRLESGVPSRFSGSGSGTDYTLTISSLQPEDFATYYCQQGNTLPWTFGQGTKVEIKSSASTKGPSVFPLAPSSKSTSGGTAALGCLVKDYFPEPVTVSWNSGALTSGVHTFPAVLQSSGLYSLSSVVTVPSSSLGTQTYICNVNHKPSNTKVDKKVEPKSCGGGGSGGGGSEVQLQESGPGLVKPSQSLSLTCSVTGYSITSGYYWNWIRQFPGNKLEWMGYITYDGSNNYNPSLKNRISITRDTSKNQFFLKLNSVTTEDTATYYCADFDYWGQGTTLTVSSASTKGPSVFPLAPSSKSTSGGTAALGCLVKDYFPEPVTVSWNSGALTSGVHTFPAVLQSSGLYSLSSVVTVPSSSLGTQTYICNVNHKPSNTKVDKKVEPKSCDKTHTCPPCPAPEAAGGPSVFLFPPKPKDTLMISRTPEVTCVVVDVSHEDPEVKFNWYVDGVEVHNAKTKPREEQYNSTYRVVSVLTVLHQDWLNGKEYKCKVSNKALGAPIEKTISKAKGQPREPQVCTLPPSRDELTKNQVSLSCAVKGFYPSDIAVEWESNGQPENNYKTTPPVLDSDGSFFLVSKLTVDKSRWQQGNVFSCSVMHEALHNHYTQKSLSLSPGK
chain 3: EVQLVESGGGLVQPGGSLRLSCAASGYSFTGYTMNWVRQAPGKGLEWVALINPYKGVSTYNQKFKDRFTISVDKSKNTAYLQMNSLRAEDTAVYYCARSGYYGDSDWYFDVWGQGTLVTVSSASVAAPSVFIFPPSDEQLKSGTASVVCLLNNFYPREAKVQWKVDNALQSGNSQESVTEQDSKDSTYSLSSTLTLSKADYEKHKVYACEVTHQGLSSPVTKSFNRGEC
chain 4: not shown
For the molecule B14, in test [5], the “EC50 of T cell-mediated killing (LDH release), MV-3 cells, human PBMCs E:T 10:1, 21 h” value came out at 40.9 pM and the “EC50 of T cell-mediated killing (LDH release), WM266-4 cells, human PBMCs E:T 10:1, 21 h” value stood at 28.4 pM.

What is called Kd is the concentration at which binding is half-saturated.
